Here are results for three molecules from patent publication US20260062466A1 (WASHINGTON UNIVERSITY, published 2026).

One assay has as its target CHIKV-37997 (virus) (Chikungunya virus strain 37997, UniProt Q5XXP3 326-748; Q5XXP3 810-1248). The experiment in a line: cell-based or functional assay.
The next assay concerns the target CHIKV-LR 2006 (virus) (Chikungunya virus strain LR 2006). The experiment in a line: cell-based or functional assay.

Chain of CHIKV-37997 (virus) (Q5XXP3 326-748 limits assumed, chain 1 of 2): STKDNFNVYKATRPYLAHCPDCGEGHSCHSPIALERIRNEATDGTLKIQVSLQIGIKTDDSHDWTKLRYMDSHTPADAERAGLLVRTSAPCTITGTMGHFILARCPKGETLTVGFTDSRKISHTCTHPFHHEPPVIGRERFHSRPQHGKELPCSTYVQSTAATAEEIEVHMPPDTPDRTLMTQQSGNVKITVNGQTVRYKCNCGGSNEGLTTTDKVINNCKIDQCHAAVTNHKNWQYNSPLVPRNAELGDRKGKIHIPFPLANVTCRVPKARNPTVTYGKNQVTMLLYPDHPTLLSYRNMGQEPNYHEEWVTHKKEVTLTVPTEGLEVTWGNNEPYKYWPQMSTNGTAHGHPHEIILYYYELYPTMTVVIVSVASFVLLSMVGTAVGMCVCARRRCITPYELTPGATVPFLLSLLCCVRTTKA
Chain of CHIKV-37997 (virus) (Q5XXP3 810-1248 limits assumed, chain 2 of 2): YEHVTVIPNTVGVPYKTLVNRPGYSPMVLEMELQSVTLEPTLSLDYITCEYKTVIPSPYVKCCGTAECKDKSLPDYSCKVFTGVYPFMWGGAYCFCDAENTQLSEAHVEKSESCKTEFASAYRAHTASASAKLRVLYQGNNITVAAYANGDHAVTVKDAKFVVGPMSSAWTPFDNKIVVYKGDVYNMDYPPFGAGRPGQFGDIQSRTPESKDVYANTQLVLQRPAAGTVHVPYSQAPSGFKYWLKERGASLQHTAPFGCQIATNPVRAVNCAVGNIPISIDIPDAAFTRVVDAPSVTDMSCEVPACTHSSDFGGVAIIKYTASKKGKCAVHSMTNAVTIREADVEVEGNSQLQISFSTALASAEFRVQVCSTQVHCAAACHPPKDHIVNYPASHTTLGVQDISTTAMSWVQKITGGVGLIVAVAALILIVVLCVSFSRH

B1: 506.C01 (antibody, V domains shown)
VH: QVQLQESGPGLVKPSQTLSLTCTVSGGSISSDDYYWTWIRLPPGKGLEWIGYIFYTGGTYYNPSLKSRVTISLDRSKNQFSLKLSSVTAADTAVYFCARAPETYCSTTNCYKGYFDSWGQGTLVTVSS
VL: DIQMTQSPSSVSASVGDRVTITCRASQGISSWLGWYQQKPGKAPKLLIYAASSLQSGVPSRFSGSGSGTDFTLTISSLQPEDFATYYCQQANSFPRTFGQGTKVEIK
Turning to B1, the “FRNT neutralisation, 37997 EC50” value in the assay with CHIKV-37997 (virus) stood at 0.002 µg/mL. Further, the “FRNT neutralisation, LR 2006 EC50” value with CHIKV-LR 2006 (virus) was found to be 0.008 µg/mL.

B2: 516.A10 (antibody, V domains shown)
VH: QVQMVESGGGVVQPGRSLRLSCAASGFTFSSYPIHWVRQVPGKGLEWVAVISYDGSNKYYADSVKGRFTISRDNSKNTLYLQMNSLRPEDTAVYFCARGRGDFELNSFDYWGQGTLVTVSS
VL: EIVLTQSPGTLSLSPGERATLSCRASQSVSSSYLGWYQQKLGQAPRLLIYGASSRATGIPDRFSGSGSGTDFTLTISRLEPEDFAVYYCQQYGSTPFTFGPGTKVDIK
Regarding B2, in the assay with CHIKV-37997 (virus), the “FRNT neutralisation, 37997 EC50” value is 0.128 µg/mL. Moreover, the “FRNT neutralisation, LR 2006 EC50” value with CHIKV-LR 2006 (virus) was determined as 0.004 µg/mL.

B3: 506.A08 (antibody, V domains shown)
VH: EEQLVESGGGLVQPGGSLRLSCAASGFTFSSYSMNWVRQAPGKGLEWVSYISSSSSTIHYADSVKGRFTISRDNAKNSLYLQMNSLRAEDTAVYYCAREGNSGYEPLDYWGQGTLVTVSS
VL: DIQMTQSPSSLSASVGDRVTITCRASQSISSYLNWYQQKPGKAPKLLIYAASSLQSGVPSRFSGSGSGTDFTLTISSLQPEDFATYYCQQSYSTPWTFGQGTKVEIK
Regarding B3, in the assay with CHIKV-37997 (virus), the “FRNT neutralisation, 37997 EC50” value worked out at 0.072 µg/mL. In the assay with CHIKV-LR 2006 (virus), the “FRNT neutralisation, LR 2006 EC50” value amounted to 0.11 µg/mL.
